The source of these data is the RNAGym collection of RNA variant scans (doi:10.1073/pnas.2313332121).

This sample holds only a part of the variants without activity.

B1: TPR 5TU (parent)
chain: GGAUCUUCUCGAUCUAACAAAAAAGACAAAUCUGCCACAAAGCUUGAGAGCAUCUUCGGAUGCAGAGGCGGCAGCCUUCGGUGGCGCGAUAGCGCCAACGUUCUCAACUAUGACACGCAAAACGCGUGCUCCGUUGAAUGGAGUUUAUCAUG

The variants in this data set derive from B1. Kind of data set: polymerase ribozyme fitness, log enrichment relative to wild type (log ratio); higher = more active; in vitro selection for triplet polymerase activity. The method, boiled down: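 One round of in vitro selection, in triplicate, was applied to PCR-built, transcribed mutant libraries of each subunit of a heterodimeric triplet polymerase ribozyme. The steps were annealing with a biotinylated primer, partner subunit and triplets, incubation frozen at −7 °C, gel excision of extended constructs, streptavidin-bead capture and RT-PCR. Fitness is the logarithm, base 2, of genotype enrichment over wild-type enrichment from inverse-variance-weighted replicate averages of Illumina-sequenced inputs and outputs, keeping genotypes with ≥10 input reads and ≥1 read per output.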
In the case of A20G C35G A49C A73G C87G, the “polymerase ribozyme fitness (log ratio)” value is at most -4.2.

Turning to A20G A30U G83A A110C U148C, the “polymerase ribozyme fitness (log ratio)” value was at most -4.2.

In the case of A20G A28U G42C A49C C93G C103A, the “polymerase ribozyme fitness (log ratio)” value was at most -4.2.

Take A20U C51U U55G C57G A120C: the “polymerase ribozyme fitness (log ratio)” value was -3.76.

In the case of A20C C118U, the “polymerase ribozyme fitness (log ratio)” value was -0.906.

Turning to A20G A142C, the “polymerase ribozyme fitness (log ratio)” value was -1.06.

For the variant A20C U127G G133C U134C A137C A138G G140A, the “polymerase ribozyme fitness (log ratio)” value is at most -4.2.

Regarding A20G G42C G84A C149A, the “polymerase ribozyme fitness (log ratio)” value is at most -4.2.

A20C U31G A49C A52C U53C: the “polymerase ribozyme fitness (log ratio)” value is at most -4.2.

For the variant A20C U61G C75U U146A, the “polymerase ribozyme fitness (log ratio)” value was -2.77.

For A20G A73U G83A, the “polymerase ribozyme fitness (log ratio)” value was -2.36.

Turning to A20U A40U U56A C96A G141C, the “polymerase ribozyme fitness (log ratio)” value was -2.73.

A20U A22C U82G G86U U101G C103G G143U: the “polymerase ribozyme fitness (log ratio)” value is at most -4.2.

As to A20G G59C G70A, the “polymerase ribozyme fitness (log ratio)” value was -4.05.

Take A20U U56G G65A C76U C85A G141C U148C: the “polymerase ribozyme fitness (log ratio)” value was at most -4.2.

In the case of A20U C57U A66U C95A U102C G141A U145G, the “polymerase ribozyme fitness (log ratio)” value was at most -4.2.

In the case of A21C A26U C38U C87G C105U, the “polymerase ribozyme fitness (log ratio)” value was at most -4.2.

Turning to A21C A28U G59C A97G U134C, the “polymerase ribozyme fitness (log ratio)” value is at most -4.2.

Turning to A20G C43U G62U A91G, the “polymerase ribozyme fitness (log ratio)” value was at most -4.2.

As for A20G A52U C57A G62U C95A G133C A150U, the “polymerase ribozyme fitness (log ratio)” value is -1.8.

With A20C G81C C87U, the “polymerase ribozyme fitness (log ratio)” value is -1.28.

Take A20U G42A G62A G86U U134G G140U: the “polymerase ribozyme fitness (log ratio)” value was at most -4.2.

For A20U A28C G83U C87A C99G G140A, the “polymerase ribozyme fitness (log ratio)” value is at most -4.2.

Regarding A20C C63U A64C, the “polymerase ribozyme fitness (log ratio)” value is at most -4.2.

Turning to A20U A52U A89C, the “polymerase ribozyme fitness (log ratio)” value was -3.39.

As to A20G A21C G84U C95G G117U, the “polymerase ribozyme fitness (log ratio)” value was -0.439.

Turning to A20U U61A, the “polymerase ribozyme fitness (log ratio)” value is -2.43.

As to A20U A47U A49C U53A G80C A91U C96U A137G G140U, the “polymerase ribozyme fitness (log ratio)” value was at most -4.2.

As for A20C C87A C116U, the “polymerase ribozyme fitness (log ratio)” value is at most -4.2.

On to A21C A28U A30U A47G, for which the “polymerase ribozyme fitness (log ratio)” value was at most -4.2.

Take A21C A52U G74A G94C A121U: the “polymerase ribozyme fitness (log ratio)” value was at most -4.2.

As for A20C C57G C105G C149A, the “polymerase ribozyme fitness (log ratio)” value was at most -4.2.

A20U G62U G86A A107U G140A: the “polymerase ribozyme fitness (log ratio)” value was at most -4.2.

With A20G G74A C87U U101C A107U, the “polymerase ribozyme fitness (log ratio)” value is at most -4.2.

In the case of A20U A47U A89U C96U G128U, the “polymerase ribozyme fitness (log ratio)” value is at most -4.2.

In the case of A20G C57G A66C G94A C132U, the “polymerase ribozyme fitness (log ratio)” value is at most -4.2.

Take A21C A40C C99G: the “polymerase ribozyme fitness (log ratio)” value was -0.927.

Take A20U A30C A41G G74U C93U: the “polymerase ribozyme fitness (log ratio)” value was at most -4.2.

For A20U G58A C96U U111G G124A U148A, the “polymerase ribozyme fitness (log ratio)” value was at most -4.2.

Turning to A20C C54U C95U G140U, the “polymerase ribozyme fitness (log ratio)” value was -3.23.

Consider A20U G42U U55G G62A, for which the “polymerase ribozyme fitness (log ratio)” value is at most -4.2.

As for A20G C27U C35U A49U C76U C125U, the “polymerase ribozyme fitness (log ratio)” value is at most -4.2.

With A20U C38G C57U G86A, the “polymerase ribozyme fitness (log ratio)” value is -3.63.

For the variant A20U A40C, the “polymerase ribozyme fitness (log ratio)” value is -0.959.

With A20C G62A G86U, the “polymerase ribozyme fitness (log ratio)” value was -2.06.

On to A20U U55A C85A, for which the “polymerase ribozyme fitness (log ratio)” value was -3.29.

On to A20G G81A C96U C114G U127G A142C, for which the “polymerase ribozyme fitness (log ratio)” value was at most -4.2.

In the case of A20C G92A U101G G124A C129U, the “polymerase ribozyme fitness (log ratio)” value is -3.24.

For the variant A20U A47G G50U C85G, the “polymerase ribozyme fitness (log ratio)” value was -3.77.

As to A21C A40C G48A C85A G94C, the “polymerase ribozyme fitness (log ratio)” value is -2.1.

On to A20C U144G, for which the “polymerase ribozyme fitness (log ratio)” value stood at 0.273.

In the case of A20G C57A C69A C76U C96U, the “polymerase ribozyme fitness (log ratio)” value is -1.94.

Regarding A20G G50C C54G C105G A106U G133C U151A, the “polymerase ribozyme fitness (log ratio)” value was at most -4.2.

Regarding A20G C69U G84C G126C G136A, the “polymerase ribozyme fitness (log ratio)” value was -1.72.

For A20G G50C C54G C76A C87G U90G C95U, the “polymerase ribozyme fitness (log ratio)” value was at most -4.2.

Take A20C C76U C85U C95U C96U: the “polymerase ribozyme fitness (log ratio)” value was -3.03.

On to A20U A21U, for which the “polymerase ribozyme fitness (log ratio)” value was -0.727.

On to A20C U53A U55A, for which the “polymerase ribozyme fitness (log ratio)” value is -2.52.

On to A20U G74A A137U, for which the “polymerase ribozyme fitness (log ratio)” value is at most -4.2.

In the case of A20U U31C U109G, the “polymerase ribozyme fitness (log ratio)” value is -0.957.

Consider A20C C63G G152A, for which the “polymerase ribozyme fitness (log ratio)” value was -2.4.

As to A21C A41C A115G, the “polymerase ribozyme fitness (log ratio)” value is -1.51.

On to A20U A40U A49C G94A C99A G143A, for which the “polymerase ribozyme fitness (log ratio)” value was at most -4.2.

Turning to A20G A22C C93A, the “polymerase ribozyme fitness (log ratio)” value was -3.38.

With A20G C96A, the “polymerase ribozyme fitness (log ratio)” value is -1.84.

Turning to A20C G83C C118G U130G, the “polymerase ribozyme fitness (log ratio)” value was at most -4.2.

Take A21C A29G U44G C63U G68U C103U A137G G143U: the “polymerase ribozyme fitness (log ratio)” value was at most -4.2.

Turning to A20U G83C G92A U127A G128U, the “polymerase ribozyme fitness (log ratio)” value was at most -4.2.

For the variant A20G C63A G74A C93A, the “polymerase ribozyme fitness (log ratio)” value is at most -4.2.

In the case of A21C A24U C32A G80A C93U C95A, the “polymerase ribozyme fitness (log ratio)” value is at most -4.2.

Regarding A21C A60U, the “polymerase ribozyme fitness (log ratio)” value is -0.52.

As to A21C A60G, the “polymerase ribozyme fitness (log ratio)” value is 0.714.

Regarding A20C U53A C54A G59A G84A G124C, the “polymerase ribozyme fitness (log ratio)” value is -2.39.

In the case of A20G A73G C85A, the “polymerase ribozyme fitness (log ratio)” value was -2.05.

As for A20C U33A C43U G88U G92A A115C G126A C132U A147C, the “polymerase ribozyme fitness (log ratio)” value is at most -4.2.

As to A20C C85U A89G A106G, the “polymerase ribozyme fitness (log ratio)” value was -2.07.

Take A20U A97U: the “polymerase ribozyme fitness (log ratio)” value was -2.04.

A20G A22U G70U C85G A110U A121C: the “polymerase ribozyme fitness (log ratio)” value is at most -4.2.

Regarding A20U C93G, the “polymerase ribozyme fitness (log ratio)” value is at most -4.2.

For A20U C93A, the “polymerase ribozyme fitness (log ratio)” value is -2.86.

In the case of A20U A52U C76A C93A, the “polymerase ribozyme fitness (log ratio)” value was at most -4.2.

Turning to A20C U55A G67C G124A A137U, the “polymerase ribozyme fitness (log ratio)” value is at most -4.2.

Turning to A20U C96U A98G, the “polymerase ribozyme fitness (log ratio)” value was -1.71.
